Laboratory results published in publication PMC5509884, “Dampened activity of ryanodine receptor channels in mutant skeletal muscle lacking TRIC‐A” (The Journal of Physiology, 2017).

Molecular target: the molecule itself
Assay: SDS-PAGE immunoblot of the purified protein; anti-PA tag immunoblot of the fractions of the PA-tag column purification of recombinant TRIC-A from CHO cells (buffers with 0.1% DM); bands marked as monomer, dimer and trimer

B1: mouse TRIC-A (type A trimeric intracellular cation channel), full length, with an N-terminal PA-tag (natural protein, UniProt Q3TMP8 1-298, looked up)
chain: MDLMSALSLGELALSFSRVPLFPVFDLSYFIVSIIYLKYEPGAVELSRRHPVASWLCAMLHCFGSYILADLLLGEPIIDYFSNSSSILLASGVWYLIFFCPLDLFYKCVCFLPVKLIFVAMKEVVRVRKIAVGIHHAHHHYHHGWFIMIATGWVKGSGVALLSNVEQLLRGVWKPETNEILHMSFPTKASLYGAILFTLQQTRWLPVSKASLIFVFTMFMVSCKVFLTATHSHSSPFDILEGYICPVLFGATWGGDHHHDNHGAPHGMGLGTQHSGLPAKAKEELGEGSRKKKTKKAD
notes: TRIC-A (trimeric intracellular cation channel type A), mouse, full-length cDNA; The introduction says, citing other work, that TRIC channels are trimers of three monomers of about 30 kDa; also called purified TRIC-A; recombinant TRIC-A; not shown: PA-tag, N-terminal, kept
  binding result: binds
